The record followed here is US20100196361A1, “Method of inhibition of vascular development using an antibody” (DYAX CORP., priority 2003, published 2010).

In this test the target is Tie1 (Homo sapiens, UniProt P35590). Put plainly: Immunohistochemistry of matched tumor and normal tissue sections. The settings on record: frozen sections. Type of test: binding. On the procedure: To evaluate the binding of E3 to Tie1 in primary tumor and normal tissue the antibody was produced as an IgG and biotin labeled. The E3 antibody and two other anti Tie1 antibodies B2 and D11 were reformatted as full length IgG molecules. Nucleic acids encoding these IgGs were transiently transfected into HEK293T cells. Plasmid preparations for transient cell transfections were performed using the HP-[…]™ MIDI prep kit (Sigma, cat. no. NA0200). HEK293T cells (GenHunter Corp. cat. no. Q401) were seeded 24 hours before transfection; 6×10^6 cells were plated per 10-cm culture dish. Transfections were carried out using LIPOFECTAMINE™ 2000 reagent (Invitrogen, cat. no. 11668019) following the manufacturer's instructions. Five micrograms of plasmid DNA was used per 10-cm dish. Cells were cultured in DMEM (Invitrogen, cat. no. 31966021) supplemented with 10% “ultra-low IgG” fetal calf serum (Invitrogen, cat. no. 16250078), at 37° C., 5% CO2, in a water saturated atmosphere. Conditioned media were harvested 72 hours and 144 hours after transfection, pooled and sterile filtered.
The Tie1 antibodies were biotinylated using the EZ-link Sulfo-NHS-SS-Biotin (Pierce, Cat. 21331). For Tie1/Fc and Tie1-His, the reaction was performed for 2 hours on ice in 50 mM sodium carbonate buffer, pH 9.6, in the presence of a 5-fold molar excess of biotinylating agent. For the antibodies, the reaction was performed for 2 hours on ice in PBS, in the presence of a 15-fold molar excess of EZ-link Sulfo-NHS-SS-Biotin. The reaction was stopped by the addition of Tris-HCl, pH 7.5 (50 mM final concentration) followed by a 1-hour incubation on ice. Samples were then dialyzed against PBS.
Various normal and tumor tissue sections were stained with biotinylated antibodies. A mouse monoclonal anti-Tie1 antibody (7e8) (Alitalo laboratory, University of Helsinki) was used as a positive control. Sections without primary antibody served as negative control. All samples were fresh frozen tissues and staining was performed with the TSA-kit (Perkin-Elmer Life Sciences). After acetone fixation (10-20 min, −20° C.) the slides were treated with 0.73% H2O2 for 10 min to reduce endogenous peroxidase activity followed by blocking for 30 min with TNB buffer. Sections ([…] thick) were incubated with primary antibodies (10 μg/ml) overnight at 4° C. Sections with the mouse monoclonal anti-tie1 antibody (7e8) were treated with biotinylated anti-mouse antibodies (VectaStain) before the addition of streptavidin-HRP. Signal was amplified by using a TSA kit and the visualized by AEC (235 ml NaAc,15 ml AEC (stock solution: 1600 mg 3-amino-9-ethyl-carbazole and 480 ml N-dimethylformamide), 250 μl H2O2).

Tie1, sequence (P35590 22-1138): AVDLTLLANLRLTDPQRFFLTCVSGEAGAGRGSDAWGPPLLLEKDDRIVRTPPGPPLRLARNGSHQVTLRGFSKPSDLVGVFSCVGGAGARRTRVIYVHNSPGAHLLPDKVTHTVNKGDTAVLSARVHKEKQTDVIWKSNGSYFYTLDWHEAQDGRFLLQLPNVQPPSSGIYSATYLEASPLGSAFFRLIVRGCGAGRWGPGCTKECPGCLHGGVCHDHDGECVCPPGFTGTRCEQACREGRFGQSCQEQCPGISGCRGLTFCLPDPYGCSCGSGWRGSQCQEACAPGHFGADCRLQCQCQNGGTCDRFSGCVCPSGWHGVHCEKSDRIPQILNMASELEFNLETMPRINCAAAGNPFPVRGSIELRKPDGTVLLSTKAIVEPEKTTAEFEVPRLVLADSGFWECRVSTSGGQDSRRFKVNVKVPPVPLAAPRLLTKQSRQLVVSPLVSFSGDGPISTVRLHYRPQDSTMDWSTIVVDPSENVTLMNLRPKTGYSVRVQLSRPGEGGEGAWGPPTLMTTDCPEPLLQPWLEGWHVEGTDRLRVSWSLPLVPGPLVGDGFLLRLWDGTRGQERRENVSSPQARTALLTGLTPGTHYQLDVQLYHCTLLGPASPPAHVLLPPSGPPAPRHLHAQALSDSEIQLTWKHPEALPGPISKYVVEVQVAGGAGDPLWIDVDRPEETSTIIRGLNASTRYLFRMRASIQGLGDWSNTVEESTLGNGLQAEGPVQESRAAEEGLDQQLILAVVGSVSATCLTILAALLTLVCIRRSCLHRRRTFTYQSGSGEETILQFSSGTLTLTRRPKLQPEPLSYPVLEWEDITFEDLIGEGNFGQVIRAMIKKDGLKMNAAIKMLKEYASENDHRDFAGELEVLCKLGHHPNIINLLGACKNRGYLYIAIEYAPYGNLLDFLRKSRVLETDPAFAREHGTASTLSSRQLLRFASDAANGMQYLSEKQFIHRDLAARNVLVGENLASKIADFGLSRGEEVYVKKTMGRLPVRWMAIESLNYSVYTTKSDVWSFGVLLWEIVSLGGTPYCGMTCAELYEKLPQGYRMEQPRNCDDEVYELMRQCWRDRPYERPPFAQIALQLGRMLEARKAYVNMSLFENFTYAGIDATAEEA

B1: E3: human anti-Tie1 antibody from phage Fab library, reformatted as IgG; HC variable SEQ ID NO:114, LC variable SEQ ID NO:116 (antibody, V domains shown)
VH: EVQLLESGGGLVQPGGSLRLSCAASGFTFSMYGMVWVRQAPGKGLEWVSVISPSGGNTGYADSVKGRFTISRDNSKNTLYLQVNSLRAEDTAVYYCARAPRGYSYGYYYWGQGTLVTVSSASTKGPSVFPLAPSSKSTSGG
VL: DIQMTQSPLSLSASVGDRVTITCRASQGIGHYLAWYQQKPGKVPKLLIYTASTLQSGVPSRFSGSGSGTDFTLTINSLQPEDVATYYCQQFNSYPHTFGQGTRLDIK
modifications: IgG constant regions; Synthetically generated peptide
Regarding B1, under “10 μg/ml”, the “staining of breast (mammary tissue)” value is “brightest staining in the veins and capillaries of the mammary tissue”; the “staining of breast carcinoma” value is listed as “stained also other structures in addition to vessels”; the “staining of hypernephroma tissue” value is recorded as “clear staining”; the staining of kidney entry was “stained kidney tubules in addition to the vessels”. For the same molecule, under “10 μg/ml”, the “staining of lung carcinoma” value is recorded as “stained structures other than vessels”, the “staining of melanoma tissue” value was “also stained other surrounding structures”, the “staining of normal lung” value is listed as “stained especially clearly the large veins in the lung” and the “staining of normal skin” value is on record as “stained blood vessels very faintly”. Further, the “tissue specificity of vessel staining in normal tissues” value (biotinylated antibody 10 μg/ml) is “stained vessels in the lung and kidney but not in the skin”.
